Key:
[1] = molecular target: T1, PCSK9-V5 (full-length human PCSK9 with C-terminal V5 tag) (human, UniProt Q8NBP7 31-692); test: poly-histidine pull-down, AnxA1-(His)6 on cobalt chelate beads, PCSK9-V5 medium
T1 construct: Used as conditioned medium of CHO-K1 cells (Far Western, pull-down) or co-expressed in cells (co-IP); The background says PCSK9 is secreted as a prosegment-PCSK9 heterodimer; also called full-length (FL) PCSK9-V5; native PCSK9; not shown: C-terminal V5 tag
Procedure: (§1) FIG. 4. Characterization of the interaction of PCSK9 with AnxA2. (A) PCSK9-V5 Far Western blot of lysates of COS-1 cells, wild type (WT) CHO-K1 cells, CHO-K1 cells overexpressing an empty vector (pIRES), AnxA1 or AnxA2. (B) Poly-histidine pull-down assay. Purified native AnxA2-(His)₆ or AnxA1-(His)₆ were immobilized on cobalt chelate beads and incubated with PCSK9-V5. […] PCSK9 (heavy arrow) and its furin-cleaved form (PCSK9-Δ218; light arrow) were pulled-down by AnxA2. (C) Co-immunoprecipitation experiments of CHO-K1 cells co-transfected with PCSK9-V5 and either AnxA1-HA, AnxA2-HA or with AnxA2-HA and p11. […] Expression of the transfected constructs was analyzed by Western blotting of cell lysates using the anti-V5-HRP or anti-HA-HRP antibodies. (D, left panel) PCSK9-V5 Far Western blots of purified AnxA2-(His)₆ in the absence or presence of reducing agents. Note that in non-reducing conditions, PCSK9-V5 binds both the dimer and monomer forms of AnxA2. (D, right panel) Western blots of the purified AnxA2-(His)₆ using the anti-AnxA2 mAb in non-reducing or reducing conditions. […]
20 μg of purified AnxA2-(His)₆ or AnxA1-(His)₆ or no proteins (for negative control) were immobilized onto a cobalt chelate resin (Thermo Scientific). […] Supernatants were analyzed by Western blot as described above using the anti-V5-HRP or anti-His-HRP antibodies.

[2] = molecular target: T1, PCSK9-V5 (full-length human PCSK9 with …); test: co-immunoprecipitation with anti-V5 from co-transfected CHO-K1 cells
Procedure: as §1, with “conditions. (E, upper panel) Media from CHO-K1 cells expressing PCSK9-V5 or the CHRD-V5 were separated by SDS-PAGE (8%), transferred onto nitrocellulose, incubated with purified AnxA2-(His)₆ and probed with the anti-His-HRP antibody.” for “conditions.”

B1: purified AnxA1-(His)6 (other)
chain: MAMVSEFLKQAWFIENEEQEYVQTVKSSKGGPGSAVSPYPTFNPSSDVAALHKAIMVKGVDEATIIDILTKRNNAQRQQIKAAYLQETGKPLDETLKKALTGHLEEVVLALLKTPAQFDADELRAAMKGLGTDEDTLIEILASRTNKEIRDINRVYREELKRDLAKDITSDTSGDFRNALLSLAKGDRSEDFGVNEDLADSDARALYEAGERRKGTDVNVFNTILTTRSYPQLRRVFQKYTKYSKHDMNKVLDLELKGDIEKCLTAIVKCATSKPAFFAEKLHQAMKGVGTRHKALIRIMVSRSEIDMNDIKAFYQKMYGISLCQAILDETKGDYEKILVALCGGNHHHHHH
- binding result [1]: no binding

B2: AnxA1-HA (human AnxA1 with C-terminal HA epitope) (other)
chain: MAMVSEFLKQAWFIENEEQEYVQTVKSSKGGPGSAVSPYPTFNPSSDVAALHKAIMVKGVDEATIIDILTKRNNAQRQQIKAAYLQETGKPLDETLKKALTGHLEEVVLALLKTPAQFDADELRAAMKGLGTDEDTLIEILASRTNKEIRDINRVYREELKRDLAKDITSDTSGDFRNALLSLAKGDRSEDFGVNEDLADSDARALYEAGERRKGTDVNVFNTILTTRSYPQLRRVFQKYTKYSKHDMNKVLDLELKGDIEKCLTAIVKCATSKPAFFAEKLHQAMKGVGTRHKALIRIMVSRSEIDMNDIKAFYQKMYGISLCQAILDETKGDYEKILVALCGGNYPYDVPDYA
- binding result [2]: no binding

— US20110118181A1 (INSTITUT DE RECHERHES CLINIQUES DE MONTREAL, published 2011)
